{"source": "patent US20140031293A1", "target": "purified human fibrinogen (human) (UniProt P02671)", "sequence (P02671 20-629 limits assumed, chain 1 of 3)": "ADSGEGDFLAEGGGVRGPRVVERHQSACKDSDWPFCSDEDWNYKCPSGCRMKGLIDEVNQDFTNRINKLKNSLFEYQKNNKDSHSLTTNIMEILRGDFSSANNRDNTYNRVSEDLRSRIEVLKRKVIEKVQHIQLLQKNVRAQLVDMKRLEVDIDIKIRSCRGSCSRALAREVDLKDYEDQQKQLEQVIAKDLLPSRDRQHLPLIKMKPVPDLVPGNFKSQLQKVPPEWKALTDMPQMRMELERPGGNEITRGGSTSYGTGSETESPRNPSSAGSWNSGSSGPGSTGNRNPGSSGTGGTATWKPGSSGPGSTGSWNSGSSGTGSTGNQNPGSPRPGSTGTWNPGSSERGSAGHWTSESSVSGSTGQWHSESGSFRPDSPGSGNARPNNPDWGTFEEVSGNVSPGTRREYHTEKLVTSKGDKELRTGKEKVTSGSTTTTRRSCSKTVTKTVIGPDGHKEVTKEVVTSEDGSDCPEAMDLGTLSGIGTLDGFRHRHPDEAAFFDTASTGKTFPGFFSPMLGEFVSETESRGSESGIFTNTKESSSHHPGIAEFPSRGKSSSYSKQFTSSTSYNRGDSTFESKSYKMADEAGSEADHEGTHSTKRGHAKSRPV", "sequence (P02675 31-491 limits assumed, chain 2 of 3, further chain)": "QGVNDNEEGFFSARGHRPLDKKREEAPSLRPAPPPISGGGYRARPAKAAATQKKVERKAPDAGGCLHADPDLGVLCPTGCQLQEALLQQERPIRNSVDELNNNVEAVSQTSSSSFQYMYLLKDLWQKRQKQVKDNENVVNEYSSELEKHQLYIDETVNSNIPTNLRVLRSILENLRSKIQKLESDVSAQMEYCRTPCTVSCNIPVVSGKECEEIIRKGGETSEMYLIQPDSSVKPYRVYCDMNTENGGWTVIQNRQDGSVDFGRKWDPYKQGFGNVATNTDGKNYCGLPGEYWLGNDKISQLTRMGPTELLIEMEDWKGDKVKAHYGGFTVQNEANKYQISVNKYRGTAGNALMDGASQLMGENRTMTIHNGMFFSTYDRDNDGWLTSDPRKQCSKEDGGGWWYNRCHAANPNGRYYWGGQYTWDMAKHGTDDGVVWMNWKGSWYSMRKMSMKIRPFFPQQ", "sequence (P02679 other isoform, or with tags, fused parts or gaps limits assumed, chain 3 of 3, further chain)": "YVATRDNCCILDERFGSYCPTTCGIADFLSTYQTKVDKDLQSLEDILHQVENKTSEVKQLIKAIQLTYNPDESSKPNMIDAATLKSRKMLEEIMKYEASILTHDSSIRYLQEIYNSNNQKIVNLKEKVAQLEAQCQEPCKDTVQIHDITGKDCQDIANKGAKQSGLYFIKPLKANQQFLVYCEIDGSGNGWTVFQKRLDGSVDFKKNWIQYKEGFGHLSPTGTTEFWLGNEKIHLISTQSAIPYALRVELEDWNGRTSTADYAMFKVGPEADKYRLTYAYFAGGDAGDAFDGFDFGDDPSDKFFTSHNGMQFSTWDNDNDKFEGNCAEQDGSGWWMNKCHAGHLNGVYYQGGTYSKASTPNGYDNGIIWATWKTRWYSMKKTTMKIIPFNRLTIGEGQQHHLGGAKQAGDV", "assay": "cell-based or functional assay", "data": [{"substance": "PeproStat: fibrinogen-binding peptides of sequence GPRPG (GPRPG-PEG12-maleimide) conjugated to human serum albumin thiolated with 2-iminothiolane (from UniProt P02768 25-609)", "values": [{"measurement": "Clotting activity (clot formation, Sigma Amelung KC4 coagulometer; 30 uL sample at 0.5 mg/ml added to 100 uL fibrinogen at 3 mg/ml)", "result": "< 6", "unit": "s"}]}]}
